First the molecules themselves.
B1: FabI, enoylreductase of E. coli fatty acid biosynthesis (enzyme)
chain: MGFLSGKRILVTGVASKLSIAYGIAQAMHREGAELAFTYQNDKLKGRVEEFAAQLGSDIVLQCDVAEDASIDTMFAELGKVWPKFDGFVHSIGFAPGDQLDGDYVNAVTREGFKIAHDISSYSFVAMAKACRSMLNPGSALLTLSYLGAERAIPNYNVMGLAKASLEANVRYMANAMGPEGVRVNAISAGPIRTLAASGIKDFRKMLAHCEAVTPIRRTVTIEDVGNSAAFLCSDLSAGISGEVVHVDGGFSIAAMNELELK
notes: FabI enoyl-ACP reductase, E. coli; titrated with 0.5 mM NAD+ in the buffer; also called ER; source: E. coli BL21 (DE3), purified (Ni-IMAC, Superdex 75)
B2: FabI, E. coli enoylreductase (enzyme)
chain: MGFLSGKRILVTGVASKLSIAYGIAQAMHREGAELAFTYQNDKLKGRVEEFAAQLGSDIVLQCDVAEDASIDTMFAELGKVWPKFDGFVHSIGFAPGDQLDGDYVNAVTREGFKIAHDISSYSFVAMAKACRSMLNPGSALLTLSYLGAERAIPNYNVMGLAKASLEANVRYMANAMGPEGVRVNAISAGPIRTLAASGIKDFRKMLAHCEAVTPIRRTVTIEDVGNSAAFLCSDLSAGISGEVVHVDGGFSIAAMNELELK
notes: enoylreductase FabI (enoyl-ACP reductase [NADH]), E. coli; Titrated with 0.5 mM NAD+ present; also called ER; source: E. coli BL21 (DE3), purified (Ni-IMAC, Superdex 75)
B4: FabG, E. coli ketoreductase (enzyme)
chain: MNFEGKIALVTGASRGIGRAIAETLAARGAKVIGTATSENGAQAISDYLGANGKGLMLNVTDPASIESVLEKIRAEFGEVDILVNNAGITRDNLLMRMKDEEWNDIIETNLSSVFRLSKAVMRAMMKKRHGRIITIGSVVGTMGNGGQANYAAAKAGLIGFSKSLAREVASRGITVNVVAPGFIETDMTRALSDDQRAGILAQVPAGRLGGAQEIANAVAFLASDEAAYITGETLHVNGGMYMV
notes: ketoreductase FabG (3-oxoacyl-ACP reductase), E. coli; Titrated with 0.5 mM NAD+ present; also called KR; source: E. coli BL21 (DE3), purified (Ni-IMAC, Superdex 75)
B5: octanoyl-AcpP (15N-C8-AcpP), E. coli acyl carrier protein (natural protein)
chain: STIEERVKKIIGEQLGVKQEEVTNNASFVEDLGADSLDTVELVMALEEEFDTEIPDEEAEKITTVQAAIDYINGHQA
modifications: octanoyl pantethenamide probe loaded as a 4'-phosphopantetheine analog (amide linked octanoyl) on S36; uniformly 15N labeled and perdeuterated
notes: Acyl carrier protein AcpP of E. coli; Grown on a His-tagged pET-22b vector; also called amide linked octanoyl AcpP; source: E. coli BL21 (DE3), M9 minimal media with 15N NH4Cl and D2O, purified; made apo with ACPH, then loaded with an octanoyl pantethenamide probe (CoaA, CoaD, CoaE, Sfp)
B6: octanoyl-AcpP (C8-AcpP), E. coli acyl carrier protein (natural protein)
chain: STIEERVKKIIGEQLGVKQEEVTNNASFVEDLGADSLDTVELVMALEEEFDTEIPDEEAEKITTVQAAIDYINGHQA
modifications: octanoyl pantethenamide probe loaded (stable C8 acyl analog); uniformly 15N labeled and perdeuterated
notes: acyl carrier protein AcpP, E. coli; PDB 2FAD is heptanoyl-AcpP, used for docking only; also called 15N-C8-AcpP; source: E. coli BL21 (DE3), M9 minimal media with 15N NH4Cl and D2O, purified; made apo with P. aeruginosa ACPH, then loaded with CoaA, CoaD, CoaE and Sfp
B7: FabF, elongating ketosynthase of E. coli fatty acid biosynthesis (enzyme)
chain: SKRRVVVTGLGMLSPVGNTVESTWKALLAGQSGISLIDHFDTSAYATKFAGLVKDFNCEDIISRKEQRKMDAFIQYGIVAGVQAMQDSGLEITEENATRIGAAIGSGIGGLGLIEENHTSLMNGGPRKISPFFVPSTIVNMVAGHLTIMYGLRGPSISIATACTSGVHNIGHAARIIAYGDADVMVAGGAEKASTPLGVGGFGAARALSTRNDNPQAASRPWDKERDGFVLGDGAGMLVLEEYEHAKKRGAKIYAELVGFGMSSDAYHMTSPPENGAGAALAMANALRDAGIEASQIGYVNAHGTSTPAGDKAEAQAVKTIFGEAASRVLVSSTKSMTGHLLGAAGAVESIYSILALRDQAVPPTINLDNPDEGCDLDFVPHEARQVSGMEYTLCNSFGFGGTNGSLIFKKI
notes: FabF ketosynthase (3-oxoacyl-ACP synthase 2), E. coli; also called KS; source: E. coli BL21 (DE3), purified (Ni-IMAC, Superdex 75)

Assay [1] concerns the target FabB (Escherichia coli) (UniProt P0A953). In words: NMR titration (TITAN). The note with it: cited from earlier work.
In assay [2] the target is B5. Put plainly: NMR titration; 1H-15N HSQC of perdeuterated 15N-C8-AcpP with increasing unlabeled partner protein, five points; TITAN 2D lineshape analysis, flexible stoichiometry model, error from 300 bootstrap steps; 37 °C, 10 mM potassium phosphate pH 7.4, 0.5 mM TCEP, 0.5 mM NAD+, 0.1% NaN3. Conditions: both partners purified.
Assay [3] concerns the target B6. Put plainly: NMR titration; 1H-15N HSQC of 15N, perdeuterated C8-AcpP titrated with unlabeled partner, at least five points; 37 °C; 10 mM potassium phosphate pH 7.4, 0.5 mM TCEP, 0.5 mM NAD+, 0.1% NaN3; TITAN 2D lineshape analysis, flexible stoichiometry model. The note with it: both partners purified.
In assay [4] the target is B1. In words: NMR titration; 1H-15N HSQC of perdeuterated 15N-C8-AcpP with increasing unlabeled partner protein, five points; TITAN 2D lineshape analysis, flexible stoichiometry model, error from 300 bootstrap steps; 37 °C, 10 mM potassium phosphate pH 7.4, 0.5 mM TCEP, 0.5 mM NAD+, 0.1% NaN3. The note with it: both partners purified.
The target in assay [5] is B7. Put plainly: NMR titration; 1H-15N HSQC of perdeuterated 15N-C8-AcpP with increasing unlabeled partner protein, five points; TITAN 2D lineshape analysis, flexible stoichiometry model, error from 300 bootstrap steps; 37 °C, 10 mM potassium phosphate pH 7.4, 0.5 mM TCEP, 0.1% NaN3. The note with it: both partners purified.
Assay [6] deals with T1, TesA, E. coli thioesterase (E. coli, UniProt P0ADA1 27-208).
T1 construct: TesA thioesterase 1, E. coli; the natural protein is periplasmic; source: E. coli BL21 (DE3), purified (Ni-IMAC, Superdex 75)
T1 sequence: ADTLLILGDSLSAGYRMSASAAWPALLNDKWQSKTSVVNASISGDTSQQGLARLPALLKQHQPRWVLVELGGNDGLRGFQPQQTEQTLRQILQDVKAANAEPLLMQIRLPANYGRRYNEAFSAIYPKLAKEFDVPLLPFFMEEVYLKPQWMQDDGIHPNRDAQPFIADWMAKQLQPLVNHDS
The description is as above. Conditions: both partners purified.

Assay [7] deals with B2. Put plainly: NMR titration; 1H-15N HSQC of 15N, perdeuterated C8-AcpP titrated with unlabeled partner, at least five points; 37 °C; 10 mM potassium phosphate pH 7.4, 0.5 mM TCEP, 0.5 mM NAD+, 0.1% NaN3; TITAN 2D lineshape analysis, flexible stoichiometry model. The note with it: both partners purified.
The target in assay [8] is B4. Described as above. The note with it: both partners purified.
Assay [9] deals with T2, FabF, E. coli elongating ketosynthase (E. coli, UniProt P0AAI5 2-413).
T2 construct: ketosynthase FabF (3-oxoacyl-ACP synthase 2), E. coli; also called KS; source: E. coli BL21 (DE3), purified (Ni-IMAC, Superdex 75)
T2 sequence: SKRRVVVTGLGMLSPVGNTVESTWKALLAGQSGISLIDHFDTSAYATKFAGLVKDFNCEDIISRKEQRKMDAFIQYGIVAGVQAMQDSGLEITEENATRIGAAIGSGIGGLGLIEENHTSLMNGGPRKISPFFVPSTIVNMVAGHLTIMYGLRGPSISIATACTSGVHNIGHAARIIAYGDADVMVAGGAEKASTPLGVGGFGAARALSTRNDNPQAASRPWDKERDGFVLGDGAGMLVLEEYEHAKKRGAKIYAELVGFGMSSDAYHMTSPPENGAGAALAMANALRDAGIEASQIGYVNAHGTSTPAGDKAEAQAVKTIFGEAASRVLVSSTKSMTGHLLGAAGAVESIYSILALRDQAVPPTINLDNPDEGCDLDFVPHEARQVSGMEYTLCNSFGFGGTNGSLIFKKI
Put plainly: NMR titration; 1H-15N HSQC of 15N, perdeuterated C8-AcpP titrated with unlabeled partner, at least five points; 37 °C; 10 mM potassium phosphate pH 7.4, 0.5 mM TCEP, 0.1% NaN3; TITAN 2D lineshape analysis, flexible stoichiometry model. Conditions: both partners purified.

For assay [10], the target named is T3, TesA, E. coli thioesterase (E. coli, UniProt P0ADA1 27-208).
T3 construct: thioesterase TesA (thioesterase 1), E. coli; source: E. coli BL21 (DE3), purified (Ni-IMAC, Superdex 75)
T3 sequence: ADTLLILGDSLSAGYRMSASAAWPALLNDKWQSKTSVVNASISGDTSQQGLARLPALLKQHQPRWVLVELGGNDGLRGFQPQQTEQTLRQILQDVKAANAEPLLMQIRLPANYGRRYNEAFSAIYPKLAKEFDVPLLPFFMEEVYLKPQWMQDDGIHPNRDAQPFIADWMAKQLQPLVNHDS
Described as above. The note with it: both partners purified.

The target of assay [11] is B5. Put plainly: NMR titration; 1H-15N HSQC of perdeuterated 15N-C8-AcpP with increasing unlabeled partner protein, five points; TITAN 2D lineshape analysis, flexible stoichiometry model, error from 300 bootstrap steps; 37 °C, 10 mM potassium phosphate pH 7.4, 0.5 mM TCEP, 0.1% NaN3. The note with it: both partners purified.

For orientation: Kd means a measure of binding affinity in units of concentration. The term stoichiometry N denotes the number of molecules, sites or subunits per partner or assembly. The koff is the rate constant with which the complex falls apart. The low end stands for slow dissociation, the high end for fast dissociation.

Sequence of FabB (Escherichia coli) (P0A953 whole entry): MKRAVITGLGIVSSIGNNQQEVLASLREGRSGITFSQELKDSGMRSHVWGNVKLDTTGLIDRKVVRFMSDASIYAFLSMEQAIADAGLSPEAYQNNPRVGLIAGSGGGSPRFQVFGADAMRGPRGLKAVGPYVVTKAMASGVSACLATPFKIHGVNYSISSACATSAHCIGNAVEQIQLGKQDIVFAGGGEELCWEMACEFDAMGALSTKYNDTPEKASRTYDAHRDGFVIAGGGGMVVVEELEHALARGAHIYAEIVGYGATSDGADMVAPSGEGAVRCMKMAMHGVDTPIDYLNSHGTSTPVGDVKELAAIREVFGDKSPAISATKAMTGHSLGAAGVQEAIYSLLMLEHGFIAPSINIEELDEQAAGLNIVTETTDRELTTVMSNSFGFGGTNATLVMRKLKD

Regarding AcpP (from UniProt P0A6A8), in [1], the Kd is 37.6 µM.

In the case of B1, the “stoichiometry N” value in [2] was 1.2.

Turning to B2, the “stoichiometry N” value in assay [3] was roughly 1.

B3: FabG, ketoreductase of E. coli fatty acid biosynthesis (enzyme)
chain: MNFEGKIALVTGASRGIGRAIAETLAARGAKVIGTATSENGAQAISDYLGANGKGLMLNVTDPASIESVLEKIRAEFGEVDILVNNAGITRDNLLMRMKDEEWNDIIETNLSSVFRLSKAVMRAMMKKRHGRIITIGSVVGTMGNGGQANYAAAKAGLIGFSKSLAREVASRGITVNVVAPGFIETDMTRALSDDQRAGILAQVPAGRLGGAQEIANAVAFLASDEAAYITGETLHVNGGMYMV
notes: FabG 3-oxoacyl-ACP reductase, E. coli; titrated with 0.5 mM NAD+ in the buffer; also called KR; source: E. coli BL21 (DE3), purified (Ni-IMAC, Superdex 75)
On to B3, for which the “stoichiometry N” value in assay [2] worked out at 2.2.

As for B4, the “stoichiometry N” value in assay [3] was 2.

With B5, the Kd came out at 1600 nM in [4], 6.9 µM in assay [5] and 13 µM in assay [6]. The results for the koff in assay [4], in [5] and in assay [6] were 6360 s⁻¹, 3350 s⁻¹ and 9750 s⁻¹, respectively.

Take B6: the equilibrium dissociation constant (Kd) was determined as 1700 nM in assay [7], 52.3 µM in [8], 8.3 µM in [9] and 12.5 µM in [10]. The koff in assay [7] is 8500 s⁻¹; in assay [8], 3560 s⁻¹; in assay [9], 3510 s⁻¹; in assay [10], 9720 s⁻¹.

B7: in [11], the “stoichiometry N” value was found to be 1.3.
